# Publication PMC6286077
# Target: phosphorylated PD-1 cytosolic domain, bound to large unilamellar vesicles (LUVs)
# Assay: FRET or BRET
substance,measurement,value
"Shp1, full length, SNAP-Tag fused, labeled with SNAP-Cell 505 (from UniProt P29350 1-595) (enzyme)",fold selectivity of PD-1 toward full-length Shp2 over Shp1,29 fold
